Experimental data reported in patent publication US20190300576A1 (MIT, published 2019).
*1 amine or outer side, *2 acyl side, *3 side chain or, on linkers, in order; H or OH if unused. Bridges are numbered along the chain shown (N, C = ends). Where no end group is shown, it is not given here. [ ]: non-standard residue; d: D form. The star is where a group is joined. Hexa = hexylalanine = (2S)-2-aminononanoic acid, CCCCCCC[C@H](N[*:1])C(=O)[*:2]; Biotin = O=C1N[C@H]2[C@H](CS[C@H]2CCCCC(=O)*)N1; perfluorosulfone = not defined here; R8 = C=CCCCCCC[C@@](C)(N)C(=O)O; F2f = difluoro-L-phenylalanine; Cba = N[C@@H](CC1CCC1)C(=O)O; S5 = C=CCCC[C@](C)(N)C(=O)O; Anta = not defined here; Napa = not defined here; Dap = NC[C@H](N)C(=O)O; F3f = not defined here

Tests used:
[1] = target: T1, SUMO-^25-109MDM2 (UniProt Q00987 25-109); assay: BLI, biotinylated peptide immobilized
T1 construct: range 25-109; Expressed in Rosetta (DE3) pLysS cells, MW=23 297 Da, used with the SUMO tag on; not shown: SUMO fusion tag (protein purified on Ni-NTA)

[2] = target: T1, SUMO-^25-109MDM2; assay: BLI, peptide on streptavidin sensors, global fit
[3] = target: T1, SUMO-^25-109MDM2; assay: BLI in-solution competition assay, free MDM2 read on immobilized 63a
[4] = target: T1, SUMO-^25-109MDM2; assay: BLI, acetylated peptide (in solution competition assay)
[5] = target: MDM2 in MDM2 overexpressing SJSA-1 cells (UniProt Q00987 1-491, limits assumed); assay: cell-based or functional assay
[6] = target: T1, SUMO-^25-109MDM2; assay: BLI, immobilized assay for biotinylated peptide
[7] = target: T1, SUMO-^25-109MDM2; assay: BLI, estimated in solution (competition assay) for acetylated construct

B1: peptide 3a (peptide)
peptide: Biotin-LTFPHYWAELTSK-NH2
SMILES: CC(C)C[C@H](NC(=O)CCCC[C@@H]1SC[C@@H]2NC(=O)N[C@@H]21)C(=O)N[C@H](C(=O)N[C@@H](Cc1ccccc1)C(=O)N1CCC[C@H]1C(=O)N[C@@H](Cc1c[nH]cn1)C(=O)N[C@@H](Cc1ccc(O)cc1)C(=O)N[C@@H](Cc1c[nH]c2ccccc12)C(=O)N[C@@H](C)C(=O)N[C@@H](CCC(=O)O)C(=O)N[C@@H](CC(C)C)C(=O)N[C@H](C(=O)N[C@@H](CO)C(=O)N[C@@H](CCCCN)C(N)=O)[C@@H](C)O)[C@@H](C)O
B1 was tested, and the Kd [1] was 80 nM.

Biotin-LT[F2f]EHY[Hexa]AQ[Cba]TSK-NH2 [peptide 10a] showed a Kd [2] of 0.5 nM.

For Ac-LTFEHYWAQYTSK-NH2 [peptide 7b], the Kd [3] was 490 nM.

With Biotin-LT[F2f]EHYWAQ[F2f]TSK-NH2 [peptide 25a] the Kd [2] was 20 nM.

Biotin-LT[F3f]EHY[Anta]AQ[Cba]TSK-NH2 (reading uncertain; also: printed as LT(F3f)EHY(Anta)AQ(Cba)TSK) [peptide 22a] was tested, and the Kd [2] was 10 nM.

B2: peptide 9b (peptide)
peptide: Ac-LTYEHYWAQLTSK-NH2
notes: Text says 3Phe to Leu or Tyr (8a and 9a)
With B2 the Kd [3] was 8700 nM.

B3: peptide 8b (peptide)
peptide: Ac-LTLEHYWAQLTSK-NH2
notes: as for B2
B3 was tested, and the Kd [3] was 2500 nM and the Kd [4] was 2700 nM.

With Ac-LT[F2f][Dap]EY[Hexa]AQ[Cba][Dap]SAA-NH2 (bridge 4-11 via perfluorosulfone; reading uncertain) [peptide 10b-S1] the “IC50, viability of SJSA-1 cells” value [5] was greater than 20000 nM.

Biotin-LT[F2f]EHYWAQ[Cba]TSK-NH2 [peptide 11a] gave a Kd [2] of 2 nM.

Biotin-LT[F2f]EHYWAQ[Hexa]TSK-NH2 [peptide 19a] showed a Kd [2] of 8 nM.

For Biotin-LT[F2f][R8]EY[Hexa]AQ[Cba][S5]SAA-NH2 (staple 4-11, Macrocyclic) [peptide 10a-M], the Kd [2] was 5 nM and the Kd [6] was 3 nM.

With Ac-LT[F2f][Dap]EYWAQ[Cba][Dap]SAA-NH2 (linker 4-11 via perfluoroaryl sulfone, Macrocyclic) [peptide 11b-S1] the “IC50, viability of SJSA-1 cells” value [5] was 7800 nM and the Kd [7] was 1 nM.

B4: peptide ATSP-7040 (peptide)
peptide: LTF[R8]EYWAE[Cba][S5]SAA-NH2
modifications: staple 4-11; N-terminus assumed
SMILES: CC(C)C[C@H](N)C(=O)N[C@H](C(=O)N[C@@H](Cc1ccccc1)C(=O)N[C@]1(C)CCCCCCC=CCCC[C@@](C)(C(=O)N[C@@H](CO)C(=O)N[C@@H](C)C(=O)N[C@@H](C)C(N)=O)NC(=O)[C@H](CC2CCC2)NC(=O)[C@H](CCC(=O)O)NC(=O)[C@H](C)NC(=O)[C@H](Cc2c[nH]c3ccccc23)NC(=O)[C@H](Cc2ccc(O)cc2)NC(=O)[C@H](CCC(=O)O)NC1=O)[C@@H](C)O
With B4 the “IC50, viability of SJSA-1 cells” value [5] was 3000 nM.

In the case of Ac-LT[F2f][R8]EFWAQ[Cba][S5]SAA-NH2 (staple 4-11) [peptide 11b-M], the “IC50, viability of SJSA-1 cells” value [5] is reported as 3200 nM.

B5: peptide 10b-S4 (peptide)
peptide: Ac-LT[F2f]KEY[Hexa]AQ[Cba]KSAA-NH2
modifications: linker 4-11 via perfluorosulfone; reading uncertain; also: printed as LT(F2f)KEY(Hexa)AQ(Cba)(K)SAA
B5 was tested, and the “IC50, viability of SJSA-1 cells” value [5] was greater than 20000 nM.

For Ac-LT[F2f]KEY[Napa]AQ[Cba]KSAA-NH2 (linker 4-11 via perfluorosulfone; reading uncertain) [27b-S4], the “IC50, viability of SJSA-1 cells” value [5] was greater than 20000 nM.

In the case of Ac-LT[F2f][R8]EY[Hexa]AQ[Cba][S5]SAA-NH2 (staple 4-11) [peptide 10b-M], the “IC50, viability of SJSA-1 cells” value [5] is reported as 2400 nM.

B6: peptide 27b-M (peptide)
peptide: Ac-LT[F2f][R8]EY[Napa]AE[Cba]KSAA-NH2
modifications: staple (positions not given here); not fully specified (residue 11, bridges); reading uncertain
In the case of B6, the “IC50, viability of SJSA-1 cells” value [5] is reported as 2700 nM.

B7: peptide 11b-S4 (peptide)
peptide: Ac-LT[F2f]KEYWAE[Cba]KSAA-NH2
modifications: linker 4-11 via perfluorosulfone; reading uncertain; also: printed as LT(F2f)KEYWAE(Cba)KSAA
In the case of B7, the “IC50, viability of SJSA-1 cells” value [5] is reported as greater than 20000 nM.

With Ac-LT[F2f][R8]EY[Hexa]AQ[Cba][S5]SAA-NH2 (bridges not given here) [peptide 10b-M unclosed] the “IC50, viability of SJSA-1 cells” value [5] was 17000 nM.
